Results as given in US11402384B2 (Duke University, priority 2015, dated 2022).
Where a chain is given by its changes, count along the chain named. Numbers in names are those of the source.

B1: D278C Acrylodan: tsGBP2_C278 (SEQ ID NO: 32) Acrylodan conjugate (conjugate)
chain: MKLEIFSWWAGDEGPALEALIRLYKQKYPGVEVINATVTGGAGVNAKAVLKTRMLGGDPPDTFQVHAGQELIGTWVVADRMEDLTSLFRQEGWLQAFPKGLIDLLSYKGGIWSVPVNIHRSNVMWYIPAKLKEWGVTPPKTWAEFLATAQTLKRKGLEAPLALGENWTQQHLWESVALATLGADGWNNLWSGKLKFTDPKAVAVWETFGKVLDAANKDAAGLSWQQAVDRVVQGKAAFNIMGDWAAGYMSTTLKLKPGTDFAWTPSPGTSGIFMMLSCSFGLPKGAKNRQNAINWLKLVGSKEGQDTFNPLKGSIAARLDSDPAKYNAYGQSAMKDWKSNRIVGSLVHGAVAPESFMSQFGTVMEIFLQSRNPQAAANAAQAIANQVGLGRGGSHHHHHH
modifications: Acrylodan conjugate; tsGBP2_C278 (278C substitution mutant with signal peptide replaced with M and a GGSHHHHHH at C-terminus)
B2: W9C Acrylodan: tsGBP2_C9 (SEQ ID NO: 18) Acrylodan conjugate (conjugate)
chain: B1 chain with W9C, C278D
modifications: Acrylodan conjugate; tsGBP2_C9 (9C substitution mutant with signal peptide replaced with M and a GGSHHHHHH at C-terminus)
B3: W337 Acrylodan: tsGBP2_C337 (SEQ ID NO: 34) Acrylodan conjugate (conjugate)
chain: B1 chain with C278D, W337C
modifications: Acrylodan conjugate; tsGBP2_C337 (337C substitution mutant with signal peptide replaced with M and a GGSHHHHHH at C-terminus)
B4: M357 Acrylodan: tsGBP2_C357 (SEQ ID NO: 36) Acrylodan conjugate (conjugate)
chain: B1 chain with C278D, M357C
modifications: Acrylodan conjugate; tsGBP2_C357 (357C substitution mutant with signal peptide replaced with M and a GGSHHHHHH at C-terminus)
B5: H348 Acrylodan: tsGBP2_C348 (SEQ ID NO: 35) Acrylodan conjugate (conjugate)
chain: B1 chain with C278D, H348C
modifications: Acrylodan conjugate; tsGBP2_C348 (348C substitution mutant with signal peptide replaced with M and a GGSHHHHHH at C-terminus)
B6: W8C Acrylodan: tsGBP2_C8 (SEQ ID NO: 17) Acrylodan conjugate (conjugate)
chain: B1 chain with W8C, C278D
modifications: Acrylodan conjugate; tsGBP2_C8 (8C substitution mutant with signal peptide replaced with M and a GGSHHHHHH at C-terminus)
B7: K312C Acrylodan: tsGBP2_C312 (SEQ ID NO: 33) Acrylodan conjugate (conjugate)
chain: B1 chain with C278D, K312C
modifications: Acrylodan conjugate; tsGBP2_C312 (312C substitution mutant with signal peptide replaced with M and a GGSHHHHHH at C-terminus)
B8: K312C Badan: tsGBP2_C312 (SEQ ID NO: 33) Badan conjugate (conjugate)
chain: B1 chain with C278D, K312C
modifications: Badan conjugate; tsGBP2_C312 (312C substitution mutant with signal peptide replaced with M and a GGSHHHHHH at C-terminus)
B9: W337 Badan: tsGBP2_C337 (SEQ ID NO: 34) Badan conjugate (conjugate)
chain: B1 chain with C278D, W337C
modifications: Badan conjugate; tsGBP2_C337 (337C substitution mutant with signal peptide replaced with M and a GGSHHHHHH at C-terminus)
B10: D278C Badan: tsGBP2_C278 (SEQ ID NO: 32) Badan conjugate (conjugate)
chain: B1 chain
modifications: Badan conjugate; tsGBP2_C278 (278C substitution mutant with signal peptide replaced with M and a GGSHHHHHH at C-terminus)
B11: W8C Badan: tsGBP2_C8 (SEQ ID NO: 17) Badan conjugate (conjugate)
chain: B1 chain with W8C, C278D
modifications: Badan conjugate; tsGBP2_C8 (8C substitution mutant with signal peptide replaced with M and a GGSHHHHHH at C-terminus)
B12: H348 Badan: tsGBP2_C348 (SEQ ID NO: 35) Badan conjugate (conjugate)
chain: B1 chain with C278D, H348C
modifications: Badan conjugate; tsGBP2_C348 (348C substitution mutant with signal peptide replaced with M and a GGSHHHHHH at C-terminus)
B13: M357 Badan: tsGBP2_C357 (SEQ ID NO: 36) Badan conjugate (conjugate)
chain: B1 chain with C278D, M357C
modifications: Badan conjugate; tsGBP2_C357 (357C substitution mutant with signal peptide replaced with M and a GGSHHHHHH at C-terminus)
B14: W9C Badan: tsGBP2_C9 (SEQ ID NO: 18) Badan conjugate (conjugate)
chain: B1 chain with W9C, C278D
modifications: Badan conjugate; tsGBP2_C9 (9C substitution mutant with signal peptide replaced with M and a GGSHHHHHH at C-terminus)
B15: W8F B: tsGBP2.13C.W8F (SEQ ID NO: 37) Badan conjugate (conjugate)
chain: B1 chain with W8F, E13C, C278D
modifications: Badan conjugate; tsGBP2.13C.W8F (13C, 8F double substitution mutant)
B16: W8M B: tsGBP2.13C.W8M (SEQ ID NO: 38) Badan conjugate (conjugate)
chain: B1 chain with W8M, E13C, C278D
modifications: Badan conjugate; tsGBP2.13C.W8M (13C, 8M double substitution mutant with signal peptide replaced with M and a GGSHHHHHH at C-terminus)
B17: W8Y A: tsGBP2.13C.W8Y (SEQ ID NO: 39) Acrylodan conjugate (conjugate)
chain: B1 chain with W8Y, E13C, C278D
modifications: Acrylodan conjugate; tsGBP2.13C.W8Y (13C, 8Y double substitution mutant with signal peptide replaced with M and a GGSHHHHHH at C-terminus)
B18: W8F A: tsGBP2.13C.W8F (SEQ ID NO: 37) Acrylodan conjugate (conjugate)
chain: B1 chain with W8F, E13C, C278D
modifications: Acrylodan conjugate; tsGBP2.13C.W8F (13C, 8F double substitution mutant)

Assay: Ratiometric fluorescence glucose titration of fluorescent conjugates
Format: binding
Parameters: key to Shape (fluorescence response to glucose) / Change (fluorescence response to glucose): m, monochromatic; d, dichromatic (i.e. spectral shape change); 0, no change
Settings: tsGBP2 cysteine scan, Acrylodan conjugate
Description: Semi-synthetic FRSs can be engineered by site-specifically attaching thiol-reactive, environmentally sensitive fluorophores that respond to ligand-mediated conformational changes. Identification of FRS candidates that can be used for sensing applications comprises three steps: • 1. Cysteine scan. Mutant glucose-binding proteins containing single cysteines are constructed for site-specific attachment of thiol-reactive fluorophores. […] Candidate positions fall into three classes: endosteric, replacing a residue that contacts the ligand directly; peristeric, located at the rim of the binding site; allosteric (Marvin et al., 1997, Proc Natl Acad Sci USA, 94, 4366-71; Marvin, 1998, J Am Chem Soc, 120, 7-11), located outside the binding site at sites that undergo local structural changes in concert with the hinge-bending motion. • 2. Fluorophore screening. Thiol-reactive, environmentally sensitive fluorophores are attached to each cysteine mutant prepared in step 1. • 3. Evaluation of the glucose-mediated change of all the fluorescent conjugates prepared in step 2. Responses to ligand binding in which there is both a change in fluorescence emission intensity and spectral shape are essential for chemometric applications, because such changes enable ratiometric measurements. Changes in spectral shape typically are accompanied by a shift in the wavelength of the emission intensity maxima. Three classes of fluorescent responses are possible: • i. No response. • ii. Monochromatic response (emission intensity increases or decreases without a change in spectral shape) • iii.
Determination of temperature- and ligand-dependent fluorescence landscapes. […] Temperatures were advanced in 1K steps.
Determination of emission intensity spectra.
2 For a single glucose-binding site, the fractional saturation is given by […]
In the case of B1, the “Shape (fluorescence response to glucose)” value is reported as “m”.
In the case of B2, the “Shape (fluorescence response to glucose)” value is reported as “m”.
For B3, the “Shape (fluorescence response to glucose)” value was “m”.
For B4, the “Shape (fluorescence response to glucose)” value was 0.
For B5, the “Shape (fluorescence response to glucose)” value was “m”.
For B6, the “Shape (fluorescence response to glucose)” value was “m”.
With B7 the “Shape (fluorescence response to glucose)” value was “d”.

Same assay, conditions: tsGBP2 cysteine scan, Acrylodan conjugate; ratiometric fit at λ1 and λ2; read-out: Kd ^appKd
Work on B5 yielded a Kd of roughly 1300 µM.
Work on B7 yielded a Kd of 9 µM.

Same assay, conditions: tsGBP2 cysteine scan, Acrylodan conjugate; ratiometric fit at λ1 and λ2; read-out: Kd ^trueKd
B7 showed a Kd of 10 µM.

Same assay, conditions: tsGBP2 cysteine scan, Badan conjugate
In the case of B8, the “Shape (fluorescence response to glucose)” value is reported as “m”.
For B9, the “Shape (fluorescence response to glucose)” value was 0.
With B10 the “Shape (fluorescence response to glucose)” value was 0.
For B11, the “Shape (fluorescence response to glucose)” value was “m”.
For B12, the “Shape (fluorescence response to glucose)” value was “d”.
In the case of B13, the “Shape (fluorescence response to glucose)” value is reported as “m”.
For B14, the “Shape (fluorescence response to glucose)” value was “m”.

Same assay, conditions: tsGBP2 cysteine scan, Badan conjugate; ratiometric fit at λ1 and λ2; read-out: Kd ^appKd
B12 showed a Kd of roughly 4300 µM.

Same assay, conditions: tsGBP2 cysteine scan, Badan conjugate; ratiometric fit at λ1 and λ2; read-out: Kd ^trueKd
In the case of B12, the Kd is reported as roughly 5200 µM.

Same assay, conditions: tsGBP 13C affinity mutants, Acrylodan or Badan conjugates
With B15 the “Change (fluorescence response to glucose)” value (from here on “Change”) was 0.
With B16 the “Change” value was “m”.
With B17 the “Change” value was “m/d^c”.
In the case of B18, the “Change” value is reported as 0.
